The test system of data set [1] is MS2 coat protein (bacteriophage MS2?). Particulars: EMSA: 50 mM Tris-HCl pH 7.4, 150 mM KCl, 2 mM MgCl2, 2 mM DTT, 0.1 mg/ml yeast tRNA, 0.1 mg/ml BSA, room temperature, 30 min, trace 32P-RNA. (In general: Mobility shift assays separate free from complexed probe on a gel.)
The test system is the same in data set [2]. Particulars: EMSA: 50 mM Tris-HCl pH 7.4, 150 mM KCl, 2 mM MgCl2, 2 mM DTT, 0.1 mg/ml yeast tRNA, 0.1 mg/ml BSA, room temperature, 30 min, trace 32P-RNA. This is another data set of the same source.
Data set [3] deals with T1, MBP-FUS (human, UniProt P35637 1-526). The data set can be described thus: EMSA. The following applies: EMSA: 50 mM Tris-HCl pH 7.4, 150 mM KCl, 2 mM MgCl2, 2 mM DTT, 0.1 mg/ml yeast tRNA, 0.1 mg/ml BSA, room temperature, 30 min, trace 32P-RNA.
T1 sequence (P35637 whole entry): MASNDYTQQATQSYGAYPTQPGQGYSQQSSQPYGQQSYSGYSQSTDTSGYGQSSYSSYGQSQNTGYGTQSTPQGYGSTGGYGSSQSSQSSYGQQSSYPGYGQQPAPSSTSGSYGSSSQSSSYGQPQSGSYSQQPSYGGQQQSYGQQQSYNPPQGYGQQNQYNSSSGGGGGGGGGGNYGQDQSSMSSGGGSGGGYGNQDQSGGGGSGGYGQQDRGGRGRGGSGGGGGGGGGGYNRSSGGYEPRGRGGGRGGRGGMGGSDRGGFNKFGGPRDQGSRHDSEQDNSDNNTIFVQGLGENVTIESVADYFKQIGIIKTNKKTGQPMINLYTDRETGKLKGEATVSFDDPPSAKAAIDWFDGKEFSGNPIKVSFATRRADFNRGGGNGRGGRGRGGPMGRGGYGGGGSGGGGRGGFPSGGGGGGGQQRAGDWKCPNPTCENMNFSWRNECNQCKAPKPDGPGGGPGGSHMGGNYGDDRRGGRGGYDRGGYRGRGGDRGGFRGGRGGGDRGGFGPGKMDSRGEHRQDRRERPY
For data set [4], the target named is T1, MBP-FUS. The data set can be described thus: EMSA; EMSA: 50 mM Tris-HCl pH 7.4, 150 mM KCl, 2 mM MgCl2, 2 mM DTT, 0.1 mg/ml yeast tRNA, 0.1 mg/ml BSA, room temperature, 30 min, trace 32P-RNA. Particulars: protein: recombinant, tags: N-terminal His6-MBP (not cleaved).
Data set [5] deals with T1, MBP-FUS. The data set is described as follows: EMSA; weaker than full prD; similar to 3'prD; EMSA: 50 mM Tris-HCl pH 7.4, 150 mM KCl, 2 mM MgCl2, 2 mM DTT, 0.1 mg/ml yeast tRNA, 0.1 mg/ml BSA, room temperature, 30 min, trace 32P-RNA. Particulars: protein: recombinant; tags: N-terminal His6-MBP (not cleaved); label: 32P.
A further data set concerns the target MBP-RGG-Znf-RGG (human, UniProt P35637 385-526). The data set is described as follows: EMSA; EMSA: 50 mM Tris-HCl pH 7.4, 150 mM KCl, 2 mM MgCl2, 2 mM DTT, 0.1 mg/ml yeast tRNA, 0.1 mg/ml BSA, room temperature, 30 min, trace 32P-RNA. The following applies: protein: recombinant, tags: N-terminal MBP, label: 32P.
In a further data set the target is MBP-LC-RRM (human, UniProt P35637 1-384). Described as above. Particulars: protein: recombinant, tags: N-terminal MBP, label: 32P.
Chain of MBP-LC-RRM (P35637 1-384): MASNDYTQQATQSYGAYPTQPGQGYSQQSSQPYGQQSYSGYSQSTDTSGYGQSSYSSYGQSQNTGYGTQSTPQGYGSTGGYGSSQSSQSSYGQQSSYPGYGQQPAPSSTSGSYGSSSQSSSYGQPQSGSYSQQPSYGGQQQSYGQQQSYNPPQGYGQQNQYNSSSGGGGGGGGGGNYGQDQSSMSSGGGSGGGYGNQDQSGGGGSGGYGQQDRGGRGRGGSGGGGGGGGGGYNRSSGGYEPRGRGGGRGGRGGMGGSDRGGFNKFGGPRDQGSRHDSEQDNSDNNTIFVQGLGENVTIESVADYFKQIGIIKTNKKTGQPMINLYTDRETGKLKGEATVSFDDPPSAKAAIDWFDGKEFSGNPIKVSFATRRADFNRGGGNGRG
The target in data set [6] is T1, MBP-FUS. The data set can be described thus: EMSA; weaker than full prD; similar to 5'prD; EMSA: 50 mM Tris-HCl pH 7.4, 150 mM KCl, 2 mM MgCl2, 2 mM DTT, 0.1 mg/ml yeast tRNA, 0.1 mg/ml BSA, room temperature, 30 min, trace 32P-RNA. Particulars: protein: recombinant; tags: N-terminal His6-MBP (not cleaved); label: 32P.
Data set [7] deals with T1, MBP-FUS. The data set is described as follows: competition; cold ssDNA vs labeled prD ssRNA; EMSA: 50 mM Tris-HCl pH 7.4, 150 mM KCl, 2 mM MgCl2, 2 mM DTT, 0.1 mg/ml yeast tRNA, 0.1 mg/ml BSA, room temperature, 30 min, trace 32P-RNA. Particulars: protein: recombinant; tags: N-terminal His6-MBP (not cleaved); chain copies: 4; label: 32P.
Setting [8] is: chain copies: 4, label: 32P, blunt.

Where two headings read alike, the source gives them in different places.

Chain of MBP-RGG-Znf-RGG (P35637 385-526): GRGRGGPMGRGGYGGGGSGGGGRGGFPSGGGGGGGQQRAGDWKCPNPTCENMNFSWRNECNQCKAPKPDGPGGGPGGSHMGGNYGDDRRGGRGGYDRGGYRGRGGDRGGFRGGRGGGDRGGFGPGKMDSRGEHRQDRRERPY

Turning to MBP 1-100 MS2, the Kd in data set [1] amounted to 100 nM. In turn, MS2 motif 21 nt displayed a dissociation constant (Kd) in data set [2] of 10 nM. On to MBP 1-200, for which the Kd with MBP-FUS [3] stood at 56 nM. The same measure, in the same setting: the figure for TERRA is 116 nM.

B1: Htelo DNA neg (ssDNA)
DNA: AGGGTTAGTGTTAGTGTTAGGG
For B1, the Kd with MBP-FUS [4] (label: 32P) came to 690 ± 48 nM.

B2: 5'prD (ssRNA)
RNA: AUUGAGGAGCAGCAGAGAAGUUGG
Take B2: in the data set with MBP-FUS [5], the binding result is given as “binds”.

B3: CGCGC (ssRNA)
RNA: AGGUCUCAGUUCAUCGCGCGAGGUUAUAGU
Take B3: the Kd in the data set with MBP-FUS [4] (label: 32P) stood at 290 ± 13 nM.

B4: As-prD RNA (ssRNA)
RNA: CCUUAACCCCUCUCUGCCUUCACUCCAACUUCUCUGCUGCUCCUCAAU
Turning to B4, the results for the Kd with MBP-FUS [4] (label: 32P), with MBP-RGG-Znf-RGG and in the data set with MBP-LC-RRM were 79 ± 4 nM, 260 ± 32 nM and 280 ± 22 nM, respectively.

B5: prD DNA/RNA hybrid (DNA:RNA)
DNA: ATTGAGGAGCAGCAGAGAAGTTGGAGTGAAGGCAGAGAGGGGTTAAGG
RNA: CCUUAACCCCUCUCUGCCUUCACUCCAACUUCUCUGCUGCUCCUCAAU
For B5, the Kd came out at 980 ± 100 nM with MBP-FUS [4] (setting [8]), 1100 ± 110 nM with MBP-RGG-Znf-RGG (blunt) and 1200 ± 250 nM with MBP-LC-RRM (blunt).

B6: prD dsRNA (dsRNA)
RNA 1: AUUGAGGAGCAGCAGAGAAGUUGGAGUGAAGGCAGAGAGGGGUUAAGG
RNA 2: CCUUAACCCCUCUCUGCCUUCACUCCAACUUCUCUGCUGCUCCUCAAU
On to B6, for which the values for the equilibrium dissociation constant (Kd) in the data set with MBP-FUS [4] (setting [8]), with MBP-RGG-Znf-RGG (blunt) and with MBP-LC-RRM (blunt) were 350 ± 38 nM, 1100 ± 80 nM and 2100 ± 60 nM, respectively.

B7: Htelo DNA (structured_DNA)
DNA: AGGGTTAGGGTTAGGGTTAGGG
As for B7, the dissociation constant Kd with MBP-FUS [4] (label: 32P) came out at 730 ± 38 nM.

B8: GGUG neg (ssRNA)
RNA: UUGUAUUUUGAGCUAGUUUCCUCAC
On to B8, for which the Kd with MBP-FUS [4] (label: 32P) was found to be 840 ± 50 nM.

B9: 3'prD (ssRNA)
RNA: AGUGAAGGCAGAGAGGGGUUAAGG
In the case of B9, the binding result in the data set with MBP-FUS [6] is on record as “binds”.

B10: prD RNA (ssRNA)
RNA: AUUGAGGAGCAGCAGAGAAGUUGGAGUGAAGGCAGAGAGGGGUUAAGG
Consider B10, for which the Kd was found to be 97 ± 2 nM in the data set with MBP-FUS [4] (label: 32P), 81 ± 2 nM with MBP-RGG-Znf-RGG and 60 ± 3 nM with MBP-LC-RRM.

B11: MBP 1-20 (ssRNA)
RNA: GGGAGACCAAAACUGAAGAAGGUAA
Turning to B11, the binding result in the data set with MBP-FUS [4] (label: 32P) was “binds”.

B12: GUGGU (ssRNA)
RNA: CAACUUAGGUGGUUGAUUUGA
On to B12, for which the equilibrium dissociation constant (Kd) with MBP-FUS [4] (label: 32P) stood at 980 ± 42 nM.

B13: Stem-loop (structured_RNA)
RNA: GAUUUAUCUUUAACUACUCAAGAUACUGAACAUGACA
B13: the equilibrium dissociation constant (Kd) in the data set with MBP-FUS [4] (label: 32P, hairpin) was 430 ± 28 nM.

B14: Stem-loop neg (ssRNA)
RNA: GAUUUAUCUUUAACUACUCUAUCUUCUGAACAUGACA
B14: in the data set with MBP-FUS [4] (label: 32P), the Kd was 460 ± 39 nM.

B15: GGUG (ssRNA)
RNA: UUGUAUUUUGAGCUAGUUUGGUGAC
Consider B15, for which, in the data set with MBP-FUS [4], the dissociation constant Kd turned out to be 600 ± 20 nM.

B16: polyA 24-mer (ssRNA)
RNA: AAAAAAAAAAAAAAAAAAAAAAAA
For the molecule B16, the Kd with MBP-FUS [4] (label: 32P) was 846 nM.

B17: MBP 1-10 (ssRNA)
RNA: GGGAGACCAAAACUG
B17: the binding result with MBP-FUS [4] (label: 32P) is given as “no binding”.

B18: prD ssDNA (ssDNA)
DNA: ATTGAGGAGCAGCAGAGAAGTTGGAGTGAAGGCAGAGAGGGGTTAAGG
For the molecule B18, the binding signal in the data set with MBP-FUS [7] was 10 fold more than ssRNA. Also, the Kd turned out to be 280 ± 26 nM in the data set with MBP-FUS [4] (chain copies: 4, label: 32P); 290 ± 29 nM with MBP-RGG-Znf-RGG; 220 ± 32 nM with MBP-LC-RRM.

B19: prD dsDNA (dsDNA)
DNA 1: ATTGAGGAGCAGCAGAGAAGTTGGAGTGAAGGCAGAGAGGGGTTAAGG
DNA 2: CCTTAACCCCTCTCTGCCTTCACTCCAACTTCTCTGCTGCTCCTCAAT
As to B19, the figures for the Kd with MBP-FUS [4] (setting [8]), in the data set with MBP-RGG-Znf-RGG (blunt) and with MBP-LC-RRM (blunt) were 1200 ± 110 nM, 1000 ± 81 nM and 1400 ± 170 nM, respectively.

For orientation: Kd means the constant that tells how readily two partners part at equilibrium.

For the origin of these results see PMC4551922, “Nucleic acid-binding specificity of human FUS protein”.
